{
  "source": "patent US9969998B2",
  "about": "“Compositions of adenosine deaminase-2 (ADA2), variants thereof and methods of using same” (Halozyme, Inc., priority 2014, dated 2018)",
  "molecules": {"B1": {"name": "R222Q/S265N: ADA2 combination variant SEQ ID NO:273 (protein)", "chain": "IDETRAHLLLKEKMMRLGGRLVLNTKEELANERLMTLKIAEMKEAMRTLIFPPSMHFFQAKHLIERSQVFNILRMMPKGAALHLHDIGIVTMDWLVRNVTYRPHCHICFTPRGIMQFRFAHPTPRPSEKCSKWILLEDYRKRVQNVTEFDDSLLRNFTLVTQHPEVIYTNQNVVWSKFETIFFTISGLIHYAPVFRDYVFRSMQEFYEDNVLYMEIRAQLLPVYELSGEHHDEEWSVKTYQEVAQKFVETHPEFIGIKIIYNDHRSKDVAVIAESIRMAMGLRIKFPTVVAGFDLVGHEDTGHSLHDYKEALMIPAKDGVKLPYFFHAGETDWQGTSIDRNILDALMLNTTRIGHGFALSKHPAVRTYSWKKDIPIEVCPISNQVLKLVSDLRNHPVATLMATGHPMVISSDDPAMFGAKGLSYDFYEVFMGIGGMKADLRTLKQLAMNSIKYSTLLESEKNTFMEIWKKRWDKFIADVATK", "modifications": "human ADA2 R219Q/S262N, mature numbering"}},
  "key": {"[1]": {"experiment": "Distribution of labeled PEG-ADA2-K374D in CT26 peritibial tumors (IVIS fluorescent imaging)", "type": "in vivo, Balb/C mice", "details": "for Fluorescent intensity at tumor: 0.5 mg/kg IV", "description": "To assess the distribution and elimination of administered PEG-ADA2-K374D in the tumor microenvironment or in normal organs, immunofluorescence was used to assess the presence of PEG-ADA2-K374D administered to mice. PEG-ADA2-K374D was labeled at room temperature for 60 minutes with DyLight755 Sulfydryl-Reactive Dye (DL755), a near-IR fluor, using the DyLight 755 Antibody Labeling Kit (Thermo Scientific, Rockford, Ill.). Alexa Fluor 750 (AF 750) labeled bovine serum albumin (BSA, 1 mg/mL) was purchased from (Life Technology, Carlsbad, Calif.).\nCT26 syngeneic tumors were produced by injecting 2×10^5 cells in 0.05 mL injection volume per animal into the right peritibial muscle of male Balb/C mice. When average tumor size reached 600 mm^3, tumor-bearing mice were staged into 2 groups (n=4/group) to receive either PEG-ADA2-K374D^DL755 at 0.5 mg/kg or BSA^AF750 at 0.5 mg/kg intravenously. The distribution of DL755 labeled PEG-ADA2-K374D (PEG-ADA2-K374D^DL755) and AF 750 labeled BSA (BSA^AF750) in mouse tumors was assessed using the IVIS Caliper fluorescent imaging system with an excitation wavelength of 745 nm and an emission wavelength of 800 nm (Caliper Life Sciences, Alameda, Calif.) and signal intensity was measured with LivingImage software. Images were captured before administration of labeled proteins and at 10 minute, 2, 6 hours and daily after administration of labeled proteins."}, "NK/T cells": {"test_system": "NK/T cells", "experiment": "Adenosine-mediated inhibition of NK/T cell proliferation (Cell Titer Glow)", "type": "cell-based, human", "details": "5 days", "description": "A mixture of NK and T cells (NK/T) were prepared from healthy donor's peripheral blood mononuclear cells (PBMC). Briefly, 10×10^7 HumanPBMCs were cultured for 6-7 days in Stem cell growth medium (SCGM; Order No. 20802-0500, CellGenix, Freiburg, Germany) with 5% human serum from donors with blood type AB (human AB serum; Cat. No. 35-060-C1, Mediatech, Mannassas, Va.) in the presence of 20 ng/mL anti-CD3 eBioscience, San Diego, Calif.; Cat. No. 16-0039) and 500 IU/mL recombinant human interleukin 2 (rhIL-2; Cat. No. 200-02, PeproTech, Rocky Hill, N.J.). The cells were then cultured for an additional 2-3 weeks in SCGM in the presence of 500 IU/mL rhIL-2. NK/T cells cultured for 2-4 weeks were used in experiments.\nTo test the adenosine-mediated inhibition of NK/T cells proliferation, NK/T cells (10,000 cells/well) were plated in a 96 well white plate with clear bottoms in 200 μL volume. The cells were treated with 20 μL adenosine (SKU No. A925, Sigma Aldrich) at concentrations resulting from a 3-fold dilution series starting at 1 mM, i.e. 1 mM, 300 μM, 100 μM, 30 μM, 10 μM, 3 μM, 1 μM, 0.3 μM and 0.1 μM. The NK/T cells were allowed to grow for 5 days in a humidified tissue culture incubator at 37° C. with 5% CO2. After 5 days of treatment, the cells were centrifuged in a 96 well plate at […] for 5 min. 100 μL of medium was removed from each well of cells, followed by addition of 100 μL of Cell Titer Glow (CTG) reagent (Cat. No. G7570, Promega, Madison, Wis.) and incubated at room temperature for 15 min before measuring luminescence on the SpectraMax M3 plate reader according to the manufacturer's instructions. The mean cell survival (%) was determined by comparison of the measured luminescence to control cells not treated with adenosine"}, "[2]": {"experiment": "Kinetic assessment of adenosine deaminase activity (ammonia assay, Michaelis-Menten)", "type": "biochemical", "details": "for Km / Vmax / kcat: [E] = 8.5 nM; for kcat: kcat=Vmax/0.0085/60", "outline": "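Coupled ammonia assay: rHuADA2 WT or variants (1 μg/mL, 17 nM in 2× mix) with adenosine 20 μM–20 mM, α-ketoglutarate, NADPH and GDH, at pH 7.6 or pH 6.5 (PIPES), room temperature. Michaelis-Menten fit gave Km, Vmax, kcat, kcat/Km.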"}, "[3]": {"test_system": "adenosine in tumor extracellular matrix", "experiment": "Adenosine in MH194+PSC4 tumor extracellular matrix (microdialysis, LC/MS)", "type": "in vivo, mice", "details": "for Adenosine concentration in ECM, Mean: n = 8; for Adenosine concentration in ECM, individual tumors: single animal values; for adenosine concentration in tumor ECM: 0.03 mg/kg", "description": "To assess the effects of PEGADA2 on adenosine in tumor extracellular matrix, mice bearing peritibial MH194+PSC4 tumors received vehicle, the polypeptide whose sequence is set forth in SEQ ID NO:20, which contains the amino acid replacement K374D (Zavialov numbering; K371D mature numbering), at 0.03 mg/kg, or the polypeptide whose sequence is set forth in SEQ ID NO: 273, which contains the amino acid replacements R222Q/S265N (Zavialov numbering; R219Q/S262 mature numbering), at 0.03 mg/kg, 24 or 48 hours prior to microdialysis. Each of the polypeptides were PEGylated as described above in Examples 8 and 22). The mice were anesthetized using isofluorane, and a heating pad was used to maintain body temperature. A small incision was made on the tumor. A microdialysis probe with 55,000 Da molecular weight cut-off (CMA, Stockholm, Sweden) was inserted into the tumor, via a guided cannula. The length of the microdialysis probe used in this study was 10 mm. Once the probe was in position, the cannula was withdrawn leaving the probe completely embedded in the tumor tissue. Dulbecco's phosphate buffered saline (DPBS; Thermo Fisher Scientific) with ADA inhibitors (Pentostatin and 5-iodotubercindin) was perfused through the probe at a flow rate of 1 μl/min for 30 minutes. Then the samples were collected at a flow rate of 0.5 μl/min for 60 minutes. Microdialysis perfusates were analyzed by Liquid chromatography-mass spectrometry (LC/MS) at MicroConstants (9050 Camino Santa Fe, San Diego, Calif. 92121)."}},
  "note": "Where “and” joins values, the source holds several entries; their conditions need not be identical. Equal entries are not always repeated.",
  "data": [
    {"molecule": "BSA^AF750: Alexa Fluor 750 (AF 750) labeled bovine serum albumin, control agent", "values": [
      {"measurement": "Fluorescent intensity at tumor", "setting": "[1]; Hour 0.2", "result": "2.95E+09"},
      {"measurement": "Fluorescent intensity at tumor", "setting": "[1]; Hour 2", "result": "3.92E+09"},
      {"measurement": "Fluorescent intensity at tumor", "setting": "[1]; Hour 6", "result": "4.64E+09"},
      {"measurement": "Fluorescent intensity at tumor", "setting": "[1]; Hour 24", "result": "3.18E+09"},
      {"measurement": "Fluorescent intensity at tumor", "setting": "[1]; Hour 48", "result": "1.94E+09"},
      {"measurement": "Fluorescent intensity at tumor", "setting": "[1]; Hour 72", "result": "1.30E+09"},
      {"measurement": "Fluorescent intensity at tumor", "setting": "[1]; Hour 96", "result": "9.86E+08"},
      {"measurement": "Fluorescent intensity at tumor", "setting": "[1]; Hour 144", "result": "7.78E+08"},
      {"measurement": "Fluorescent intensity at tumor", "setting": "[1]; Hour 168", "result": "6.39E+08"},
      {"measurement": "Fluorescent intensity at tumor", "setting": "[1]; Hour 196", "result": "6.59E+08"},
      {"measurement": "Fluorescent intensity at tumor", "setting": "[1]; Hour −1 (before administration)", "result": "7.86E+08"},
      {"measurement": "eliminated from tumors", "setting": "[1]; day 6 post injection, 0.5 mg/kg intravenously", "result": "~100", "unit": "%"}
    ]},
    {"molecule": "Nc1ncnc2c1ncn2[C@@H]1O[C@H](CO)[C@@H](O)[C@H]1O", "note": "[Adenosine, adenosine]", "values": [
      {"measurement": "IC50", "setting": "NK/T cells; Homo sapiens, NKT, 120 h", "result": 16.2, "unit": "µM"},
      {"measurement": "Mean Cell survival (%)", "setting": "NK/T cells; adenosine 0.1 μM", "result": 106.67, "unit": "%"},
      {"measurement": "Mean Cell survival (%)", "setting": "NK/T cells; adenosine 0.3 μM", "result": 101.19, "unit": "%"},
      {"measurement": "Mean Cell survival (%)", "setting": "NK/T cells; adenosine 1 μM", "result": 121.11, "unit": "%"},
      {"measurement": "Mean Cell survival (%)", "setting": "NK/T cells; adenosine 3 μM", "result": 110.07, "unit": "%"},
      {"measurement": "Mean Cell survival (%)", "setting": "NK/T cells; adenosine 10 μM", "result": 70.33, "unit": "%"},
      {"measurement": "Mean Cell survival (%)", "setting": "NK/T cells; adenosine 30 μM", "result": 36.84, "unit": "%"},
      {"measurement": "Mean Cell survival (%)", "setting": "NK/T cells; adenosine 100 μM", "result": 26.01, "unit": "%"},
      {"measurement": "Mean Cell survival (%)", "setting": "NK/T cells; adenosine 300 μM", "result": 13.65, "unit": "%"},
      {"measurement": "Mean Cell survival (%)", "setting": "NK/T cells; adenosine 1000 μM", "result": 15.82, "unit": "%"}
    ]},
    {"molecule": "B1", "values": [
      {"measurement": "fold higher catalytic efficiency (kcat/Km) compared to the WT ADA2", "setting": "[2]; pH 6.5", "result": 8.2, "unit": "fold"},
      {"measurement": "fold lower Km compared to the WT ADA2", "setting": "[2]; pH 6.5", "result": 5.0, "unit": "fold"},
      {"measurement": "Km", "setting": "[2]; pH 6.5", "result": 800, "unit": "µM"},
      {"measurement": "Vmax", "setting": "[2]; pH 6.5", "result": 56.75, "unit": "µM/min"},
      {"measurement": "kcat", "setting": "[2]; pH 6.5", "result": 111.27, "unit": "s⁻¹"},
      {"measurement": "fold higher catalytic efficiency (kcat/Km) compared to the WT ADA2", "setting": "[2]; pH 7.6", "result": 15, "unit": "fold"},
      {"measurement": "fold lower Km compared to the WT ADA2", "setting": "[2]; pH 7.6", "result": 4.7, "unit": "fold"},
      {"measurement": "Km", "setting": "[2]; pH 7.6", "result": 1100, "unit": "µM"},
      {"measurement": "Vmax", "setting": "[2]; pH 7.6", "result": 87.79, "unit": "µM/min"},
      {"measurement": "kcat", "setting": "[2]; pH 7.6", "result": 172.14, "unit": "s⁻¹"},
      {"measurement": "Adenosine concentration in ECM, Mean", "setting": "[3]; 24 hours after 0.03 mg/kg", "result": 6.88, "unit": "µM"},
      {"measurement": "Adenosine concentration in ECM, individual tumors", "setting": "[3]; 24 hours after 0.03 mg/kg", "result": "0.08 µM and 20.54 µM and 1.08 µM and 0.62 µM and 4.94 µM and 21.48 µM and 0.48 µM and 5.80 µM"},
      {"measurement": "adenosine concentration in tumor ECM", "setting": "[3]; 24 hours post treatment", "result": 6.9, "unit": "µM"},
      {"measurement": "Adenosine concentration in ECM, Mean", "setting": "[3]; 48 hours after 0.03 mg/kg", "result": 9.77, "unit": "µM"},
      {"measurement": "Adenosine concentration in ECM, individual tumors", "setting": "[3]; 48 hours after 0.03 mg/kg", "result": "13.06 µM and 1.96 µM and 20.36 µM and 20.62 µM and 0.35 µM and 4.15 µM and 14.26 µM and 3.43 µM"},
      {"measurement": "adenosine concentration in tumor ECM", "setting": "[3]; 48 hours post treatment", "result": 9.8, "unit": "µM"}
    ]}
  ]
}
